We go through two molecules from patent US20240344138A1, “TARGETED THERAPIES IN CANCER” (Feng Biosciences, Inc, priority 2021, published 2024).

Assay [1] relates to advanced colorectal cancers metastatic to liver (mCRC). The assay can be described thus: Phase 2 trial of navicixizumab, innate immune activating agent and PD-(L)1 agent (3L+), outcome by TME phenotype. The settings on record: 3L+ mCRC. It counts as in vivo, human. Details: mPFS: unit not given beside the values. The source says: A phase 2 clinical trial is run to determine clinical benefit in patients with advanced colorectal cancers metastatic to liver (mCRC) treated with a triplet combination of navicixizumab, an innate immune activating agent, and a PD-(L)1 agent. In this setting, regorafenib or trifluoridine/tipiracil therapy typically yield a median PFS (mPFS) of ˜2 months and median OS (mOS) of ˜7 months. […] The analysis includes enrollment of 60 patients with prospectively defined, retrospective analysis of liver metastatic lesions by the classifying the TME phenotypes as A, IA, IS or ID.
MSS+ advanced colorectal cancer patients (3L+) with liver metastases are treated with the triplet combination of navicixizumab, an anti-PD(L)1 therapy and an innate immune stimulating agent, such as the Dectin agonist Imprime PGG, the STING agonist BMS-986301 and the NLR agonist BMS-986299. ORR, mPFS, 3-month PFS rate, mOS and OS rate at 9 months are assessed across all TME phenotypes. […] patients received a greater clinical benefit than the standard of care for 3L+ mCRC with regorafenib or trifluoridine/tipiracil.

Assay [2] deals with advanced metastatic hepatocellular carcinoma. The experiment in a line: Single arm phase 2 first-line trial of bavituximab and immune checkpoint inhibitor, outcome by TME phenotype. Format: in vivo, human. Also on record: 6 month progression-free survival (6-month PFS): concentration or dose not given beside the values. The settings on record: all patients, first-line. The procedure:
A single arm phase 2 clinical trial is run to determine whether advanced metastatic hepatocellular carcinoma tumor microenvironment phenotypes correlate to clinical responses when patients are treated with Bavituximab and an immune checkpoint inhibitor in the first-line setting. The analysis includes samples from 28 patients. RNA gene signatures are analyzed from tumor samples acquired before any treatments and TME phenotypes are determined. Patients are followed for clinical response, progression-free survival, and overall survival.
Hepatocellular carcinoma patients receive a regimen of Bavituximab plus an immune checkpoint inhibitor (anti-PD-(L)1—i.e., an inhibitor to PD-1 or PD-L1) therapy. […] Twenty-eight (28) patients are enrolled, with equal representation across the 4 stromal phenotypes (7 in each phenotype). The correlation between each TME phenotype is tested against clinical outcome data. In patients that are biomarker positive, represented by immune active (IA) and immune suppressed (IS) phenotypes, the use of the regimen of Bavituximab/immune checkpoint inhibitor confers benefit in comparison to patients classified as biomarker negative, comprised of angiogenic (A) and immune desert (ID) TME phenotype classes, as shown in the TABLE 31.

B1: navicixizumab, an anti-PD(L)1 therapy and an innate immune stimulating agent (antibody, chains of the INN, looked up, V domains shown)
VH: QVQLVQSGAEVKKPGASVKISCKASGYSFTAYYIHWVKQAPGQGLEWIGYISNYNRATNYNQKFKGRVTFTTDTSTSTAYMELRSLRSDDTAVYYCARDYDYDVGMDYWGQGTLVTVSS
VL: DIVMTQSPDSLAVSLGERATISCRASESVDNYGISFMKWFQQKPGQPPKLLIYAASNQGSGVPDRFSGSGSGTDFTLTISSLQAEDVAVYYCQQSKEVPWTFGGGTKVEIK
VH2: QVQLVQSGAEVKKPGASVKVSCKASGYTFTNYWMHWVRQAPGQGLEWMGDINPSNGRTSYKEKFKRRVTLSVDKSSSTAYMELSSLRSEDTAVYFCTIHYDDKYYPLMDYWGQGTLVTVSS
VL2: B1 VL
modifications: with anti-PD(L)1 and innate immune stimulant
In the case of B1, in assay [1] (TME phenotype A (n = 12)), the ORR worked out at 25%, the “PFS rate (3 month)” value turned out to be 30%, the mOS was 12 mos and the mPFS is given as 6. Further, in assay [1] (TME phenotype IA (n = 12)), the ORR is given as 35%, the “OS rate (9 month)” value is reported as 50%, the “PFS rate (3 month)” value is listed as 30% and the mOS stood at 12 mos. Further, the mPFS in assay [1] (TME phenotype IA (n = 12)) amounted to 6. Also, in assay [1] (TME phenotype ID (n = 24)), the ORR is listed as 20%, the “OS rate (9 month)” value is recorded as 40%, the “PFS rate (3 month)” value is 30% and the mOS stood at 10 mos. The mPFS in assay [1] (TME phenotype ID (n = 24)) worked out at 4. For the same molecule, in assay [1] (TME phenotype IS (n = 12)), the ORR came out at 30%, the “OS rate (9 month)” value is reported as 45%, the “PFS rate (3 month)” value worked out at 30% and the mOS was determined as 11 mos. The mPFS in assay [1] (TME phenotype IS (n = 12)) came to 5.

B2: Bavituximab/immune checkpoint inhibitor: bavituximab plus an immune checkpoint inhibitor (anti-PD-(L)1) (antibody, chains of the INN, looked up, V domains shown)
VH: EVQLQQSGPELEKPGASVKLSCKASGYSFTGYNMNWVKQSHGKSLEWIGHIDPYYGDTSYNQKFRGKATLTVDKSSSTAYMQLKSLTSEDSAVYYCVKGGYYGHWYFDVWGAGTTVTVSS
VL: DIQMTQSPSSLSASLGERVSLTCRASQDIGSSLNWLQQGPDGTIKRLIYATSSLDSGVPKRFSGSRSGSDYSLTISSLESEDFVDYYCLQYVSSPPTFGAGTKLELK
modifications: plus immune checkpoint inhibitor
As for B2, in assay [2], the “6 month progression-free survival (6-month PFS)” value is around 57.2%, the “Overall response rate (ORR)” value is recorded as around 32% and the “overall survival (OS)” value is around 20 months.
